Test system: Escherichia coli TOP10
Experiment: shrunken log2 fold change of peptide-encoding DNA abundance (4.5 h post-induction vs induction); higher = less antimicrobial activity (less host growth inhibition)
Settings: time post-induction: 4.5 h; library: site-saturation at positions 5, 18, 19, 20
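Also: peptides expressed intracellularly from a pBAD plasmid library in pooled LB shake-flask culture, induced with 0.3% L-arabinose, DNA abundance read by NGS, three biological replicates, DESeq2 with apeglm shrinkage.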

Sequence	shrunken log2 fold change
RRIRLRPPRLPRPRPRPLLTPRP	0.0657
RRIRLRPPRLPRPRPRPLMGPRP	-0.0491
RRIRLRPPRLPRPRPRPLNCPRP	-0.156
RRIRLRPPRLPRPRPRPLQHPRP	0.212
RRIRLRPPRLPRPRPRPLQTPRP	0.101
RRIRLRPPRLPRPRPRPLSIPRP	-0.722
RRIRLRPPRLPRPRPRPLSLPRP	-0.145
RRIRLRPPRLPRPRPRPLVNPRP	-0.346
RRIRLRPPRLPRPRPRPLVQPRP	-0.0853
RRIRLRPPRLPRPRPRPMAQPRP	-0.00088
RRIRLRPPRLPRPRPRPMDMPRP	-0.384
RRIRLRPPRLPRPRPRPMDNPRP	-1.1
RRIRLRPPRLPRPRPRPMEPPRP	0.101
RRIRLRPPRLPRPRPRPMEQPRP	0.168
RRIRLRPPRLPRPRPRPMETPRP	0.483
RRIRLRPPRLPRPRPRPMEYPRP	0.015
RRIRLRPPRLPRPRPRPMHWPRP	0.0928
RRIRLRPPRLPRPRPRPMHYPRP	-0.094
RRIRLRPPRLPRPRPRPMKCPRP	0.131
RRIRLRPPRLPRPRPRPMKMPRP	-0.409
RRIRLRPPRLPRPRPRPMLGPRP	0.0421
RRIRLRPPRLPRPRPRPMLKPRP	-0.295
RRIRLRPPRLPRPRPRPMLTPRP	0.0606
RRIRLRPPRLPRPRPRPMMDPRP	-0.0843
RRIRLRPPRLPRPRPRPMNFPRP	-0.102

Sequence	shrunken log2 fold change
RRIRLRPPRLPRPRPRPMNKPRP	-0.504
RRIRLRPPRLPRPRPRPMNNPRP	-0.604
RRIRLRPPRLPRPRPRPMNSPRP	-0.406
RRIRLRPPRLPRPRPRPMNWPRP	0.134
RRIRLRPPRLPRPRPRPMPHPRP	0.0155
RRIRLRPPRLPRPRPRPMPPPRP	0.15
RRIRLRPPRLPRPRPRPMQLPRP	-0.21
RRIRLRPPRLPRPRPRPMSCPRP	0.0448
RRIRLRPPRLPRPRPRPMSSPRP	0.0128
RRIRLRPPRLPRPRPRPMWTPRP	-0.0582
RRIRLRPPRLPRPRPRPNCCPRP	-0.0382
RRIRLRPPRLPRPRPRPNFDPRP	0.0771
RRIRLRPPRLPRPRPRPNFYPRP	-0.141
RRIRLRPPRLPRPRPRPNGNPRP	-0.218
RRIRLRPPRLPRPRPRPNHDPRP	-0.333
RRIRLRPPRLPRPRPRPNHWPRP	0.0994
RRIRLRPPRLPRPRPRPNITPRP	-0.327
RRIRLRPPRLPRPRPRPNLAPRP	-0.0506
RRIRLRPPRLPRPRPRPNLFPRP	-0.0622
RRIRLRPPRLPRPRPRPNMAPRP	-0.511
RRIRLRPPRLPRPRPRPNMEPRP	0.116
RRIRLRPPRLPRPRPRPNMIPRP	-0.571
RRIRLRPPRLPRPRPRPNMKPRP	-0.173
RRIRLRPPRLPRPRPRPNMQPRP	-0.171
RRIRLRPPRLPRPRPRPNPGPRP	-0.213

Sequence	shrunken log2 fold change
RRIRLRPPRLPRPRPRPNQLPRP	-0.407
RRIRLRPPRLPRPRPRPNRMPRP	1.82
RRIRLRPPRLPRPRPRPNSQPRP	-0.32
RRIRLRPPRLPRPRPRPNVSPRP	-0.0595
RRIRLRPPRLPRPRPRPNWMPRP	-0.296
RRIRLRPPRLPRPRPRPNYDPRP	-0.372
RRIRLRPPRLPRPRPRPNYHPRP	-0.536
RRIRLRPPRLPRPRPRPPCFPRP	0.242
RRIRLRPPRLPRPRPRPPCHPRP	-0.178
RRIRLRPPRLPRPRPRPPCIPRP	-0.519
RRIRLRPPRLPRPRPRPPDTPRP	0.257
RRIRLRPPRLPRPRPRPPELPRP	0.389
RRIRLRPPRLPRPRPRPPESPRP	0.367
RRIRLRPPRLPRPRPRPPETPRP	0.0221
RRIRLRPPRLPRPRPRPPGNPRP	0.303
RRIRLRPPRLPRPRPRPPGQPRP	0.625
RRIRLRPPRLPRPRPRPPGVPRP	0.426
RRIRLRPPRLPRPRPRPPHDPRP	0.397
RRIRLRPPRLPRPRPRPPHGPRP	0.223
RRIRLRPPRLPRPRPRPPHSPRP	0.0872
RRIRLRPPRLPRPRPRPPIPPRP	0.316
RRIRLRPPRLPRPRPRPPKQPRP	0.0446
RRIRLRPPRLPRPRPRPPKSPRP	0.275
RRIRLRPPRLPRPRPRPPKTPRP	0.175
RRIRLRPPRLPRPRPRPPKYPRP	-0.154

Sequence	shrunken log2 fold change
RRIRLRPPRLPRPRPRPPLFPRP	0.412
RRIRLRPPRLPRPRPRPPLHPRP	0.456
RRIRLRPPRLPRPRPRPPLYPRP	1.61
RRIRLRPPRLPRPRPRPPMKPRP	-0.144
RRIRLRPPRLPRPRPRPPMQPRP	0.189
RRIRLRPPRLPRPRPRPPNTPRP	0.00316
RRIRLRPPRLPRPRPRPPPDPRP	1.19
RRIRLRPPRLPRPRPRPPPLPRP	1.12
RRIRLRPPRLPRPRPRPPQLPRP	0.206
RRIRLRPPRLPRPRPRPPTHPRP	0.147
RRIRLRPPRLPRPRPRPPVLPRP	0.0296
RRIRLRPPRLPRPRPRPPYDPRP	-0.188
RRIRLRPPRLPRPRPRPPYNPRP	-0.689
RRIRLRPPRLPRPRPRPQDKPRP	-0.431
RRIRLRPPRLPRPRPRPQDTPRP	-0.409
RRIRLRPPRLPRPRPRPQELPRP	-0.0432
RRIRLRPPRLPRPRPRPQEPPRP	-0.0198
RRIRLRPPRLPRPRPRPQEVPRP	0.0641
RRIRLRPPRLPRPRPRPQFCPRP	-0.137
RRIRLRPPRLPRPRPRPQHHPRP	-0.54
RRIRLRPPRLPRPRPRPQHYPRP	-0.761
RRIRLRPPRLPRPRPRPQIMPRP	-0.444
RRIRLRPPRLPRPRPRPQKMPRP	-0.0278
RRIRLRPPRLPRPRPRPQLQPRP	0.037
RRIRLRPPRLPRPRPRPQMIPRP	-0.173

Sequence	shrunken log2 fold change
RRIRLRPPRLPRPRPRPQMQPRP	0.017
RRIRLRPPRLPRPRPRPQNTPRP	-0.42
RRIRLRPPRLPRPRPRPQPKPRP	0.172
RRIRLRPPRLPRPRPRPQPTPRP	0.0811
RRIRLRPPRLPRPRPRPQQLPRP	-0.106
RRIRLRPPRLPRPRPRPQRMPRP	-0.124
RRIRLRPPRLPRPRPRPQSDPRP	-0.205
RRIRLRPPRLPRPRPRPQSQPRP	-0.179
RRIRLRPPRLPRPRPRPQTCPRP	-0.28
RRIRLRPPRLPRPRPRPQTIPRP	-0.234
RRIRLRPPRLPRPRPRPQTYPRP	-0.371
RRIRLRPPRLPRPRPRPQVHPRP	-0.184
RRIRLRPPRLPRPRPRPQYQPRP	-0.801
RRIRLRPPRLPRPRPRPRACPRP	0.223
RRIRLRPPRLPRPRPRPRAPPRP	0.71
RRIRLRPPRLPRPRPRPRCPPRP	0.188
RRIRLRPPRLPRPRPRPRCQPRP	0.72
RRIRLRPPRLPRPRPRPREDPRP	0.327
RRIRLRPPRLPRPRPRPREFPRP	0.463
RRIRLRPPRLPRPRPRPREPPRP	0.139
RRIRLRPPRLPRPRPRPRFAPRP	0.374
RRIRLRPPRLPRPRPRPRFDPRP	-0.053
RRIRLRPPRLPRPRPRPRFQPRP	0.0867
RRIRLRPPRLPRPRPRPRGRPRP	0.149
RRIRLRPPRLPRPRPRPRIRPRP	0.103

Sequence	shrunken log2 fold change
RRIRLRPPRLPRPRPRPRIYPRP	-0.636
RRIRLRPPRLPRPRPRPRKFPRP	-0.0381
RRIRLRPPRLPRPRPRPRLLPRP	0.167
RRIRLRPPRLPRPRPRPRLVPRP	0.0317
RRIRLRPPRLPRPRPRPRNGPRP	-0.0949
RRIRLRPPRLPRPRPRPRNVPRP	-0.116
RRIRLRPPRLPRPRPRPRPYPRP	-0.0267
RRIRLRPPRLPRPRPRPRQRPRP	0.892
RRIRLRPPRLPRPRPRPRQWPRP	0.223
RRIRLRPPRLPRPRPRPRRGPRP	0.543
RRIRLRPPRLPRPRPRPRSNPRP	1.62
RRIRLRPPRLPRPRPRPRTIPRP	0.0584
RRIRLRPPRLPRPRPRPRVEPRP	0.174
RRIRLRPPRLPRPRPRPRWFPRP	0.602
RRIRLRPPRLPRPRPRPRWLPRP	0.398
RRIRLRPPRLPRPRPRPRYDPRP	0.0436
RRIRLRPPRLPRPRPRPRYKPRP	-0.225
RRIRLRPPRLPRPRPRPRYVPRP	-0.265
RRIRLRPPRLPRPRPRPSAWPRP	-0.0766
RRIRLRPPRLPRPRPRPSCMPRP	-0.362
RRIRLRPPRLPRPRPRPSECPRP	0.215
RRIRLRPPRLPRPRPRPSEHPRP	-0.453
RRIRLRPPRLPRPRPRPSELPRP	-0.195
RRIRLRPPRLPRPRPRPSFTPRP	-0.672
RRIRLRPPRLPRPRPRPSHIPRP	-0.877

From the supplement of paper PMC9112550, “Optimization of the antimicrobial peptide Bac7 by deep mutational scanning” (BMC Biology, 2022)
